Measured values: the domain aggregation screens of Martell et al. (2025)

Assay: soluble fraction after stress (log2 fold change); higher = more stays soluble; pooled small domains, quantitative proteomics
Settings: stress: 75 degC
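Note: 20 min heating vs room temperature control held 20 min.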

## HMSDLQTGDINQDGTVDEKDLSLLHSYNLELIKTISNAADLNEDGVINGLDEAYLKRLFLQNSDP
  soluble fraction (log2): -0.122

## HMSDLTEVIVKFSGDIQPIRQDLDAQVEILLKGYAIITLSPNKIGRLYSYPQIESIEIPKNLYI
  soluble fraction (log2): -2.73

## HMSDPASLQRRLMSDPELTARILDSPFTRSLLDDPNLLRQMVNANPQLRRAMDANPQLRHAL
  soluble fraction (log2): -0.267

## HMSDPEAFIRQTVAAAEPEGIALSVLGKRVRGKFRTFKLRDLGYAQFRPYLGDLDGIKVEQRDGQSYARLD
  soluble fraction (log2): -1.03

## HMSDPSRKADFIAALSSLGGSAGNGKLREQLGWDEPTYDAVKQTLLDEGAITNGRGRGGSVALAG
  soluble fraction (log2): 0.976

## HMSDPTDRLVLEAALKALGEEERQVVLLHAASGLKHREIARDLGLPLSTVLSRYSRALKKLQRYLTEEGVH
  soluble fraction (log2): -1.2

## HMSDPVDDLLLRISQQAGVARGQLVAELNMLVQDRFGGNLRHEAAAVLMAKRYGIEFRDLLPALREHLVKN
  soluble fraction (log2): -0.804

## HMSDPVKQVAMRILDLREISDYTVDKMAEVLNVPVEEYRKYESGEVDMPISFLVKIGEVFHVDMTELLTG
  soluble fraction (log2): -1.55

## HMSDQTYVKDPETGEIFRVHKRVWETGEFWRDPVWGNILGGVERGSELERLLREEGWRPLQQSLEGFPEQ
  soluble fraction (log2): -0.284

## HMSDRESYGRYRNVSLTLSEYESLKNEYPLYADKYIERLSEYMETAGKHYNNHYATILSWLSKDIK
  soluble fraction (log2): -0.201

## HMSDSGLPLPRFVSLGDDRVNARAGPGFRFPINWVYLRKNFPVEVIDEFGHWRRIKDIDGIEGWIHLSML
  soluble fraction (log2): -0.793

## HMSDTSELESIIAQIIEDNPKSIEDIGAGNQKAYGFLTGQVMKATKGQANPQVANKIIRELVARKLE
  soluble fraction (log2): ≥ 1.04

## HMSDTVDITKLGIAGKTKEAAEALLKENGFSVESKEENSDTIEKGKVISYSPTKPKNGDRITLIVSSGKK
  soluble fraction (log2): 0.294

## HMSEDTYNTLTKGTRVYNGVDYGAKYGYNPLYYFLNYNDLRIAYGADPAKLVEHYALFGIKENRVANRQIT
  soluble fraction (log2): -1.33

## HMSEEELETSGLVKRSAKGNLYDIFRHRVMVPIIDVRGAIIAFGGRVLDDSKPKYINSPETMVY
  soluble fraction (log2): -0.0708

## HMSEEQLKAFLEKVQGDTSLQEKLKAAADANAVVEIAKEAGFSISADDLKNAQSELSEEELE
  soluble fraction (log2): -0.00468

## HMSEEVDVPDLVGMQLEEAEKSLEPLGLKLKIAKEIPNSEFEKGKIVDQKTKAGEKVKTGYTIEVTVSSG
  soluble fraction (log2): -0.126

## HMSEFAYPISLNGKTKFNLALSLALTKEEIEKEVLANADVQKFLNGQTPKKLIVVPGKIVNVV
  soluble fraction (log2): -0.386

## HMSEGEMSQWIIAQAKQQGGGFQPDAARLLGSYVGNNTLRARQEIDKLLTYVGPSRVVTPEDVVLLTA
  soluble fraction (log2): -0.23

## HMSEHKFIVPEEFNLKRLDQTVAAQFEKISRTKISKIIKSSLLKVNDKVVTDQSIKIKQDDVITFTEIKDQ
  soluble fraction (log2): -0.421

## HMSEKRLHLVVDESDVNTRIDKYIADELDGYSRSFIQKLIKDNNVLVNGRAVKPNYNIGISDNIDIVLPKL
  soluble fraction (log2): 0.0186

## HMSELIDSLTEAVRSAPDAVPLRLHLAELLLADGQRDRAFAQLGQVLAKDPQNARALEMLGVGS
  soluble fraction (log2): -0.129

## HMSELSEVIEKTFEELPEELKLIVKLREIDDLSYDEISNKIGIPIGTVRSRLHRAREILINIIKN
  soluble fraction (log2): -2.5

## HMSELSGSQLKAIREEKHIPLEQVASATRIRLSLLEALEMDEYAELGSRTQARGFLKLYADFLGVPFEA
  soluble fraction (log2): -1.53

## HMSEMDNMEWVREQYFQNMIYEIGEWVRDKKTGIVGEVVKRGTNYVTVVQEDFSLHKIWLEDLETTEK
  soluble fraction (log2): -0.841

## HMSEMLPFDEARRQFERDYLVQLLKLTSGNVSQAARLARRNRTDFYALLGRHQLEPASFKPE
  soluble fraction (log2): -0.971

## HMSEMVIPEDFLAALETNPQAKAFYATLNRQNQYAVYHRLQTAKRPETRAKRIADFVAQLAAGKRF
  soluble fraction (log2): -1.03

## HMSEPHPPFQVVAQFPYKSEYEDDLNFEKDQIITVTSIEDDEWYYGDFKNKGGELVEGIFPKSFVTVK
  soluble fraction (log2): -0.31

## HMSEPQYKVLFSNLDDRDGGAIVTALGAMNVPYKYNDTGTALLVPADRVYDARLQLASQGLPRG
  soluble fraction (log2): 0.262

## HMSEPTVVAINETLTSERLDRYLTTQLPHISRGGIQRLLRKGNILVDGKPAKPTQHPVAGQTVEITWPIPK
  soluble fraction (log2): -0.607

## HMSEQMQVGELVFQLHRKAIKNLHINVLPPDGFVRVSAPQAMTETAIRTAVISRLPWIRRQQQAFAAQ
  soluble fraction (log2): -3.48

## HMSERVVEIDPSQLRPGLFIRLPSGWMNHPFLFNQFRINSAEQVEIIQKLGLKTVQYLPERSSTQALPRA
  soluble fraction (log2): -1.95

## HMSESEDFQNRWRPWRSLLDDETPVVREALVDQLKLFPEEGRLFLQQMSEEDDPISARHAFELIKSLGW
  soluble fraction (log2): -0.363

## HMSETAVTYNEDFEADGSLRPNEQAVLDAFTGVLKLTVSELEKKTGLRNVVPVVASLMAKGAVEVSEELK
  soluble fraction (log2): -0.0304

## HMSETEWGEIYRKVMAAGLIPARSVRERLLALPSIEPLLQAAEAAGSKGMLDETLLDSLLSKT
  soluble fraction (log2): 0.0662

## HMSETLESYTTRLKQLEEIADSFQGVDKTFAIQAGREIRVMVVPEQISDDDMILLARDISNQIEENLDY
  soluble fraction (log2): -0.234

## HMSEVIYVAEDNVGQRIDVFLVNKLVDASRANIQKNIVDGVILVNNKNVKANYKLRLGDVVEIRTQ
  soluble fraction (log2): -1.38

## HMSEVPAAVLVTGGSINLREAPSTDATIIDVAQVGEKMTVLAEKNSWYQVSRGGRNVWVASWVVDPLT
  soluble fraction (log2): -0.066

## HMSEVTYQETLRLLRRAIDVLPQQSRQIILLGLSGKNNNEVAEMLGISVNTVKTLKKGAYKSLRNSL
  soluble fraction (log2): -1.87

## HMSEYITEGWLREKFGLGWGTEVHLPLDSRLTPAAHQLLEERKIVIKYIDAEGRVFNPDKSGEEAPVQ
  soluble fraction (log2): -0.41

## HMSEYVIVTGEKVNLRVGPGMDYEIAGQVVKGDKLELLASEGDWSKVKTGSGSIYYISSSLVQKA
  soluble fraction (log2): -0.157

## HMSFDGFSDRLKSVLNSGKYTQKEAAEKINISEYSFTKYLNGRIPQTEILYKIARLYNKSMEWLLTGKDPI
  soluble fraction (log2): -2.74

## HMSFGWELYKGKEGIADTDLHPSGWIRIADKRVFAVSEGEFIEKGLEIIVLSVDGNRIVVRELK
  soluble fraction (log2): -1.93

## HMSFGWETLEGKEGVTDTDLHPSGWVKVGDEKIFVVSQGEFLGKGTDIVVVSVDGNRVVVKELI
  soluble fraction (log2): -0.998

## HMSFKQARFMMDAANGKALAWLYSHAEVLDRKDQGENIEIHVMISPADLSRFVNAFGYQPVQS
  soluble fraction (log2): -1.07

## HMSFMFEISVIRSQYNMQDPESKTGFYNAIAKKLLEFPEKLERDNYTEAVAREYMIPETDLKNLVNSMGG
  soluble fraction (log2): -3.12

## HMSFNGTILSNYQKTYPNLAKFTYDQANDALVYEGNFIKLNGYGLSRIDPVFFNMNPDEIFIFIKNG
  soluble fraction (log2): -3.85

## HMSFNTNENKNLLWELMNKHNLFKDIDNQHYQEVQKLFEEEIVFISNNNKSLDLVEQNKKFLSSIITKLNK
  soluble fraction (log2): -1.84

## HMSFPQVELNTNKGRIVLELNSEKAPKTVANFLEYVRDGFYDGVIFHRVIDGFMIQGGGFDENFKEKA
  soluble fraction (log2): -0.6

## HMSFSPYLVRVSITDLNIRKGPGTNYAKTGKFTGKGVFTIVEMQTGKGSDTGWGRLKSGAGWISLDYTEKI
  soluble fraction (log2): -3.47

## HMSFSQNIGKRIREERLRLNLTQEKLAEDVNLSMAYIGQVERGDRSLTLDNLIIVAKRLGVTIDYLLS
  soluble fraction (log2): -4.13

## HMSFTSQSVLIEIVRGTTQLTPLAAAVGANKREVVLAVHRLKQRGLVVSAGLGQYAATEAGRAFLTAGREV
  soluble fraction (log2): -3.43

## HMSFYSVVISQDGSMLVAENRNEIYSNEELLELASEVNEKTGTIGTIGSLMYYKADKGGYTLITFLDNS
  soluble fraction (log2): -4.18

## HMSGALDTVVGIRMLKLLSTPIEKSKAFQVGIINKDGKKLRDPTSGERQHYTFLNRFVFKVQYALMRS
  soluble fraction (log2): -0.549

## HMSGDYRPLYPNLPESEKSEAFNLLAGSALPARLDDRTGDIMVPADRYYEARMILANAGFAD
  soluble fraction (log2): 0.17

## HMSGEMGIIVAKRLPIRSEPDELATRAFVLKAGTRVKIVKHLNGWLEIVHDGKAGYVQDLEVYVRVIG
  soluble fraction (log2): -0.806

## HMSGEPVKSTLPGNVFKILVAVGDSVKKGQRMFVLEAMKMEIDVNAPKDGLVTSIEVQQGQTVANGQILAK
  soluble fraction (log2): -0.0981

## HMSGIESIVIPLKGLDFDMISSTLTPQLKQAIKYDKQSDSIILVGTNAKVNIIAKQVNAMVEVYKLKT
  soluble fraction (log2): -1.81

## HMSGIGTTIKMLRENKNISQEELGNVLGVSDKTISSWEINRTEPKMGIVQLLADYFGVSTDYLIKG
  soluble fraction (log2): -0.447

## HMSGILINGELYKPGEQMSLKQRLSIQARIQMQGEDTVKPEMLKDFYNSGGPLSKEESSEYMKSQN
  soluble fraction (log2): -0.515

## HMSGIQNNFITRLKKVLAPTIGIAEEISDLLNISIDSAYRRIRGETDFTFEEIYIITRKHKISIDEIYG
  soluble fraction (log2): -3.88

## HMSGIVPAAPPLRPDLDIKWHTGDKVRHAKWGEGTIVSVKGEGEETELKIAFPGQGIRPFMQKYAPITR
  soluble fraction (log2): 0.218

## HMSGLEDIKKKILEDAGIKKGSVKFVKVDKDYDDGIWKYEIDFVYDGKEYEYEIEVETGKILSRKTEKSD
  soluble fraction (log2): 0.00588

## HMSGLVPAIGTKGEEGYIRESDIPGSNVKNPEEALAYMEWLKTQPSELLIPLYDEQGNVIGQFAVS
  soluble fraction (log2): 0.461

## HMSGMEKLAIQEIEKEIKSFVKGDILIELTGKNRATAYVSEKNVGALIGKKGERINSIEKRLGVGIDVRPY
  soluble fraction (log2): -0.23

## HMSGMNSDHRVNGNIHTFLIQHDLGTKWSVFTEQLLKQVFRSFLPDKELNFQTTDSTVILKVSLGSDFNEH
  soluble fraction (log2): -0.0399

## HMSGPAEDLLAIEGMDKELAYELAARGIRTRDELADQSLDELEAVPGLDPVRAGQLIMAARAHLFENAGQ
  soluble fraction (log2): 0.0744

## HMSGRSVSYSEFMSRVEAGQVSSVTLDGERVEVTGSDGSRYVTIAPSDATLTDKLVAKGVEVRADP
  soluble fraction (log2): 0.462

## HMSGSKEQQIVILNNILERQLQAFGLQGNREFPMVTLKNIYNSLSKIIENAGLKNVENYFVNPEQGKQM
  soluble fraction (log2): -0.0735

## HMSGTFIGGELVKPGEPLTPMQRAAITMGLQMGNTYSPEIMEKYNNAGGSPSKEEFENYQKNKS
  soluble fraction (log2): 0.216

## HMSHGFFELKTTQKEALIKLLDSHPNFTHTKTEADLTTAFLKLPMDAEQFNKLLFTNGIVLSHLVKRK
  soluble fraction (log2): -0.581

## HMSHGYVEMQAKDDQVLLAALKNHPWFEKVSIDEETGLTKAILTQPIEAEELNSMLFEKGIVLSHLVKRK
  soluble fraction (log2): 0.288

## HMSHISLGQRYKIEGYLQINLKRTQIAKEIGLPKKTVNQEIKRNSNPQTGIYKAEEAHQLYLDRMQKKRK
  soluble fraction (log2): -0.335

## HMSHKYKLTVPETGEGTRVDKFLSSALTELSRTRLKSLIEEGQVTLGGVKLTNPSHRVKSGDELNIEIPVP
  soluble fraction (log2): 0.018

## HMSHPNAPLTPEGRRRLAVLIVEDGWTIRRAAERFQVSPATASKWARRYRAGESLTDRSSRP
  soluble fraction (log2): -1.85

## HMSHSDMEEWTDAVRSRRKKLGLTQVQIARRLGVTSHHFSQIESGRTIPSASLQIEIDRLLKNWND
  soluble fraction (log2): -1.73
